Here are results for five molecules from patent US20210170047A1 (CASE WESTERN RESERVE UNIVERSITY, published 2021).

Experiment [1] has as its target T1, integrin αIIbβ3 (glycoprotein GPIIb-IIIa) on ADP-activated human platelets (human, UniProt P08514 32-1039; P05106 27-788). In words: cell-based or functional assay.
Experiment [2] has as its target T2, integrin GPIIb-IIIa on resting (predominantly inactive, no ADP) human platelets (human, UniProt P08514 32-1039; P05106 27-788).
T2 construct: whole, on cells; also called predominantly resting platelets
Put plainly: flow cytometry, human whole blood without agonist.

Experiment [3] concerns the target T1, integrin αIIbβ3 (glycoprotein …). In words: dual fluorescence microscopy, co-incubation with peptide-modified liposomes. How it is done:
The [fibrinogen: liposome] ratio in the incubation assays was maintained at 400:1 by mole, to provide a physiologically relevant competitive environment. […] A 40× oil-immersion objective was used to visualize fluorescence from platelets. Images were collected in MetaMorph™ (Universal Imaging Corp.), using an exposure time of 500 ms and intensity analysis was performed in the software accordingly. Fluorescence intensity was recorded as mean intensity per pixel area for statistical analysis. All coverslips were prepared in duplicate, and at least three fields were examined for each well.

In experiment [4] the target is T3, P-selectin on ADP-activated human platelets (human, UniProt P16109 42-830).
T3 construct: whole, on cells; also called CD62P; P-selectins
T3 sequence (looked up): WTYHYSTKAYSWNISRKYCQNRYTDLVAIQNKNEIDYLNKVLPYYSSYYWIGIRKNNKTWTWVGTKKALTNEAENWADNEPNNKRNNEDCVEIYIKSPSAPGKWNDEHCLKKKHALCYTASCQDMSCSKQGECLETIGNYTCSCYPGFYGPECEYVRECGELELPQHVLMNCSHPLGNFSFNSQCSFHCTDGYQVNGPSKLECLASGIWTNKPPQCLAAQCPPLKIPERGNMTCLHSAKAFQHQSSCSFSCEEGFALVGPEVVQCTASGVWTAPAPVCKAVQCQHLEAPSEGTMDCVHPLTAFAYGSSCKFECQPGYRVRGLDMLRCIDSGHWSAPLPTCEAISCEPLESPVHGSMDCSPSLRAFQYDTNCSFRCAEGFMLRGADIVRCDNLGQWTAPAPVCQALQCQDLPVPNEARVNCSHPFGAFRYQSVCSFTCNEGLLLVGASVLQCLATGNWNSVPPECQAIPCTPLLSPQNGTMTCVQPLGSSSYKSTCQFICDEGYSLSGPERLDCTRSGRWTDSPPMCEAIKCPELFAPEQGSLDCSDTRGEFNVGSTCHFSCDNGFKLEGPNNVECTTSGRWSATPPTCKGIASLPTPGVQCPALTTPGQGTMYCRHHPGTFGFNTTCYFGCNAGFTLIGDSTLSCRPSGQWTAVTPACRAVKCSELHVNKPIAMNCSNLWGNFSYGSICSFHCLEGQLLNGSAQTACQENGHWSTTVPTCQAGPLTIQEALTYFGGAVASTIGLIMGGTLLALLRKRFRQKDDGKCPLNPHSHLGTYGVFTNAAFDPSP
In words: fluorescence microscopy, static, collagen-adhered activated human platelets. On the procedure:
Receptor-specific binding studies in a static environment human whole blood was obtained from healthy, aspirin-refraining donors by venipuncture following IRB-approved protocol and collected in citrated tubes. Platelet-rich-plasma (PRP) was obtained from the whole blood by centrifugation (150×g, 15 min, room temperature), and platelet concentration was verified at 200×10⁶ platelets/ml. The platelets in PRP were activated using ADP at a concentration of 2×10⁻⁵M, and were allowed to adhere to glass coverslips pre-coated with collagen. […] After 1 h of incubation, the coverslips were gently washed with PBS to remove loosely bound liposomal constructs and imaged using fluorescence microscopy. […] D1 inverted fluorescence microscope fitted with a photometrics chilled CCD camera and a 63× objective using exposure time of 800 ms. To confirm that non-specific binding of the liposomes was not occurring, fluorescently-labeled peptide-modified liposomal constructs were incubated with coverslips coated with collagen only but no activated platelets, followed by gentle washing and imaged using fluorescence microscopy keeping same exposure times (800 ms).

Experiment [5] concerns the target T1, integrin αIIbβ3 (glycoprotein …). In words: flow cytometry, agonist-added human whole blood, 50 µM total lipid. How it is done: The effect of platelet activation on liposome binding was studied by a FACScan flow cytometer (Becton Dickinson) with a 488 nm laser and three color detector. For cytometry analysis whole blood aliquots with different platelet activation levels were used. The level of platelet-activation was assessed by simultaneous fluorescence staining of platelet integrin GPIIb-IIIa (with FITC-anti-CD41a) and P-Selectin (with PE-anti-CD62P). Previously we have reported on detecting progressive activation of platelets in freshly drawn blood with addition of agonists (e.g., ADP) and have confirmed that binding of RGD-modified liposomes to platelets increased in an activation-dependant manner. Following a similar protocol, whole blood aliquots containing predominantly activated platelets were incubated with PDPC-NBD-labeled cRGD-, lRGD-, or lRGE-modified liposomes at a final concentration of 50 μM total lipid. For the liposome incubated samples, FITC-anti-CD41a labeling was not used, while PE-anti-CD62P labeling was still used as an activated platelet marker. Simultaneous PE and NBD fluorescence, for gated platelet populations, was analyzed for ˜20,000 events (counts) per sample aliquot and fluorescence data were recorded accordingly. […]

Experiment [6] has the same target. In words: flow cytometry, human whole blood with ADP pre-incubation, 50 µM total lipid. The source says:
Parallel phase contrast image of the same field of view was obtained on the same microscope, by shutting off the fluorescence laser, turning on the phase contrast light source and changing the objective from fluorescence to a phase contrast one, at same magnification. To establish that the specific binding of cRGD-liposomes is predominantly to activated platelets compared to quiescent platelets, we performed flow cytometry assays similar to that described in previous publications from our group. Briefly, NBD-labeled cRGD liposomes were incubated with aliquots of freshly drawn human whole blood with or without the addition of agonist ADP. […] Following 30 min of liposome incubation, the aliquots were analyzed in a Becton-Dickinson FACScan flow cytometer for NBD fluorescence. All aliquots were measured in triplicate and approximately 15000 counts were recorded per aliquot. […] The NBD fluorescence intensity from aliquots without liposome incubation, aliquots with liposome incubation but without ADP pre-incubation, and aliquots with liposome incubation after ADP pre-incubation, were recorded as histograms and the plots were overlaid for comparison.

Ends that are not written are not given here.

T1 sequence (P08514 32-1039, chain 1 of 2): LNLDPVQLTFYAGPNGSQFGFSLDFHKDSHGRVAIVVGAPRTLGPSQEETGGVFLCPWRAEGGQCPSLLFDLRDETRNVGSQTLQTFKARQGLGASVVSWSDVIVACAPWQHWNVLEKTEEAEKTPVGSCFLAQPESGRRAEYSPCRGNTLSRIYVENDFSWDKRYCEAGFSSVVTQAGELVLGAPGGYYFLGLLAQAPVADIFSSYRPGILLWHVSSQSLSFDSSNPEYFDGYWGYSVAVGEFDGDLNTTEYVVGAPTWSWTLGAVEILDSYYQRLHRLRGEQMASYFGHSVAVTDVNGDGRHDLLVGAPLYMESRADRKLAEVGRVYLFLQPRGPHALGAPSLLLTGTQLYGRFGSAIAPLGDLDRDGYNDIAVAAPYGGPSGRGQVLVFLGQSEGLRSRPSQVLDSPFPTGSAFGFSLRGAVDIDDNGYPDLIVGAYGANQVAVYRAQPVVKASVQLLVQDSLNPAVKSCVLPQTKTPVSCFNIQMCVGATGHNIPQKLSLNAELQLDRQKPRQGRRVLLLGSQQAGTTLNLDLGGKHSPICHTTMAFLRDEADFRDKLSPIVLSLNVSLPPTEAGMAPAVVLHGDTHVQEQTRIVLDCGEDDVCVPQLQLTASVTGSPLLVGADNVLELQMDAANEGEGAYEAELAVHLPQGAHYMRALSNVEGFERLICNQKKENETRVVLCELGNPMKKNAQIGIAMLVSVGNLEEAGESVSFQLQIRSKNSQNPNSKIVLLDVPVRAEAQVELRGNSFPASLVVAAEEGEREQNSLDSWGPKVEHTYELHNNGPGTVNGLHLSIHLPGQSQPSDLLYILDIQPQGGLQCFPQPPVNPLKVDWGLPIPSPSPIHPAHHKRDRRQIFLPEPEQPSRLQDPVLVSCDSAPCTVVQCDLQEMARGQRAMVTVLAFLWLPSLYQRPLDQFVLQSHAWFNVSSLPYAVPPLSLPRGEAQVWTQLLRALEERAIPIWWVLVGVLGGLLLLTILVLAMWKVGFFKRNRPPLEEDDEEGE
T1 sequence (P05106 27-788, chain 2 of 2): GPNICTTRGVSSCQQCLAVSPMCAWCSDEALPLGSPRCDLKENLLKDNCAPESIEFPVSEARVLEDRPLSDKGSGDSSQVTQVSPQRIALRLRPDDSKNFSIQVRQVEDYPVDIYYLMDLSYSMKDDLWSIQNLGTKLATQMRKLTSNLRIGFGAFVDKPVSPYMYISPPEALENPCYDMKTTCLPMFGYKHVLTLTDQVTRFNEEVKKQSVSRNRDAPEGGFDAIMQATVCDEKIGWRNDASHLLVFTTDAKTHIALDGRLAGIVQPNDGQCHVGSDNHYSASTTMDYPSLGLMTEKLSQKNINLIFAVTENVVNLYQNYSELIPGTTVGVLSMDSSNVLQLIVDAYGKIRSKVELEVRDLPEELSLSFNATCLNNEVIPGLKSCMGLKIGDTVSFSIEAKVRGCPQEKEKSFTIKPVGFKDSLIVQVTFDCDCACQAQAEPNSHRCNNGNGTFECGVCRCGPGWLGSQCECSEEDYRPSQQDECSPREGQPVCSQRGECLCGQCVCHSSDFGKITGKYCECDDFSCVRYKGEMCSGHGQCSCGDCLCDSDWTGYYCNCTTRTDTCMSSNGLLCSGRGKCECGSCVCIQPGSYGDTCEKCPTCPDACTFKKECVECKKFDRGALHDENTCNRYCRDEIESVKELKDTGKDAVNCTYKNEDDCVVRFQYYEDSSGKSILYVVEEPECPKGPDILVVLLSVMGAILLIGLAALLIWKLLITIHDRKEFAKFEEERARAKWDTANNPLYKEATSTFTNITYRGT
T2 sequence (P08514 32-1039, chain 1 of 2): as the sequence (P08514 32-1039, chain 1 of 2) above
T2 sequence (P05106 27-788, chain 2 of 2): as the sequence (P05106 27-788, chain 2 of 2) above

B1: free cyclic RGD peptide cyclo-CNPRGDY(OEt)RC (peptide)
peptide: CNPRGDYRC
modifications: Y(OEt); terminal cysteines (C) cyclized through disulfide
Turning to B1, in experiment [1], the “IC50: concentration of peptide required to inhibit fibrinogen-mediated platelet aggregation in platelet-rich plasma by 50% (aggregometry), against lRGD” value was around 1000 times lower than for lRGD and the “IC50 estimation by aggregometry assay, against lRGD” value was ~100 fold lower than for lRGD (printed as 2 orders of magnitude).

B2: RGE-liposomes (liposomes surface-decorated with the negative control peptide GSSSGRGESPA) (peptide)
peptide: {DSPE‑PEG}-GSSSGRGESPA
modifications: also: displayed on liposome surface, 1 or 5 mol %
notes: also called lRGE-liposomes; constructs bearing negative control peptides
On to B2, for which the binding result in experiment [2] is recorded as “no binding (tested: 50 µM total lipid)”.

B3: human fibrinogen (ligand)
chain 1: ADSGEGDFLAEGGGVRGPRVVERHQSACKDSDWPFCSDEDWNYKCPSGCRMKGLIDEVNQDFTNRINKLKNSLFEYQKNNKDSHSLTTNIMEILRGDFSSANNRDNTYNRVSEDLRSRIEVLKRKVIEKVQHIQLLQKNVRAQLVDMKRLEVDIDIKIRSCRGSCSRALAREVDLKDYEDQQKQLEQVIAKDLLPSRDRQHLPLIKMKPVPDLVPGNFKSQLQKVPPEWKALTDMPQMRMELERPGGNEITRGGSTSYGTGSETESPRNPSSAGSWNSGSSGPGSTGNRNPGSSGTGGTATWKPGSSGPGSTGSWNSGSSGTGSTGNQNPGSPRPGSTGTWNPGSSERGSAGHWTSESSVSGSTGQWHSESGSFRPDSPGSGNARPNNPDWGTFEEVSGNVSPGTRREYHTEKLVTSKGDKELRTGKEKVTSGSTTTTRRSCSKTVTKTVIGPDGHKEVTKEVVTSEDGSDCPEAMDLGTLSGIGTLDGFRHRHPDEAAFFDTASTGKTFPGFFSPMLGEFVSETESRGSESGIFTNTKESSSHHPGIAEFPSRGKSSSYSKQFTSSTSYNRGDSTFESKSYKMADEAGSEADHEGTHSTKRGHAKSRPV
chain 2: QGVNDNEEGFFSARGHRPLDKKREEAPSLRPAPPPISGGGYRARPAKAAATQKKVERKAPDAGGCLHADPDLGVLCPTGCQLQEALLQQERPIRNSVDELNNNVEAVSQTSSSSFQYMYLLKDLWQKRQKQVKDNENVVNEYSSELEKHQLYIDETVNSNIPTNLRVLRSILENLRSKIQKLESDVSAQMEYCRTPCTVSCNIPVVSGKECEEIIRKGGETSEMYLIQPDSSVKPYRVYCDMNTENGGWTVIQNRQDGSVDFGRKWDPYKQGFGNVATNTDGKNYCGLPGEYWLGNDKISQLTRMGPTELLIEMEDWKGDKVKAHYGGFTVQNEANKYQISVNKYRGTAGNALMDGASQLMGENRTMTIHNGMFFSTYDRDNDGWLTSDPRKQCSKEDGGGWWYNRCHAANPNGRYYWGGQYTWDMAKHGTDDGVVWMNWKGSWYSMRKMSMKIRPFFPQQ
chain 3: YVATRDNCCILDERFGSYCPTTCGIADFLSTYQTKVDKDLQSLEDILHQVENKTSEVKQLIKAIQLTYNPDESSKPNMIDAATLKSRKMLEEIMKYEASILTHDSSIRYLQEIYNSNNQKIVNLKEKVAQLEAQCQEPCKDTVQIHDITGKDCQDIANKGAKQSGLYFIKPLKANQQFLVYCEIDGSGNGWTVFQKRLDGSVDFKKNWIQYKEGFGHLSPTGTTEFWLGNEKIHLISTQSAIPYALRVELEDWNGRTSTADYAMFKVGPEADKYRLTYAYFAGGDAGDAFDGFDFGDDPSDKFFTSHNGMQFSTWDNDNDKFEGNCAEQDGSGWWMNKCHAGHLNGVYYQGGTYSKASTPNGYDNGIIWATWKTRWYSMKKTTMKIIPFNRLTIGEGQQHHLGGAKQAGDV
notes: the fibrinogen of human platelet-rich plasma in the aggregometry assay; also called Fg
As to B3, the binding result in experiment [3] was “binds”.

B4: DAEWVDVS-modified liposomes (liposomes surface-decorated with DSPE-PEG-DAEWVDVS) (peptide)
peptide: {DSPE‑PEG}-DAEWVDVS
modifications: also: displayed multivalently on ~150 nm liposome surface, 5 mol % (2.5-10 mol %)
notes: also called singly-targeted liposomes
Consider B4, for which the binding result in experiment [4] was “binds”.

B5: cRGD-liposomes (liposomes surface-decorated with DSPE-PEG-cRGD, cyclo-CNPRGDY(OEt)RC) (peptide)
peptide: CNPRGDYRC
modifications: not fully specified; Y(OEt); terminal cysteines cyclized through disulfide; N-terminus conjugated to DSPE-PEG lipid, displayed on the liposome surface
notes: NBD or Nanogold label; also called cyclic RGD-modified liposomes
B5: in experiment [5], the “platelet-associated NBD fluorescence against lRGD-liposome-incubated aliquots” value was ~10 fold (printed as an order of magnitude). In experiment [6], the “NBD fluorescence of ADP-activated platelets against inactive platelets” value was ~100 fold (printed as two orders of magnitude).
